Key:
[1] = test system: G4-forming KRAS oligo (32R), unlabeled (DNA, G4) AGGGCGGTGTGGGAAGAGGGAAGAGGGGGAGG; experiment: UV-Vis absorption titration, Scatchard plot; details: 50 mM KCl; 10 mM Tris-HCl pH 7.5, 1 mM EDTA, RT; 4 µM TMPyP4, oligo 0-1.8 µM; specific site
[2] = test system: anti-G4 antibody clone 1H6 (mouse); experiment: fluorescence polarization; details: FP: 50 mM Tris-HCl pH 7.5, 50 mM KCl, 1 mM MgCl2, 1 mM DTT, 0.1 mM EDTA, 10 nM oligo, 30 min RT, read at 25 C; Trp quenching: same buffer, 500 nM APE1, 20 C
GST-APE1 1-42 = target: T1, GST-APE1 1-42 (human, UniProt P27695 1-42); experiment: fluorescence polarization; 50 mM KCl, 1 mM MgCl2; no measurable affinity; FP: 50 mM Tris-HCl pH 7.5, 50 mM KCl, 1 mM MgCl2, 1 mM DTT, 0.1 mM EDTA, 10 nM oligo, 30 min RT, read at 25 C; Trp quenching: same buffer, 500 nM APE1, 20 C; details: protein: recombinant; tags: GST; label: 5'-6-FAM; parallel G4 (CD), prefolded in 50 mM KCl
T1 chain: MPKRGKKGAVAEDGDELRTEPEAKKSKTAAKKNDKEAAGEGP

APE1 NΔ42 = APE1 NΔ42 (human, UniProt P27695 43-318, del1-42); experiment: fluorescence polarization; 50 mM KCl, 1 mM MgCl2; FP: 50 mM Tris-HCl pH 7.5, 50 mM KCl, 1 mM MgCl2, 1 mM DTT, 0.1 mM EDTA, 10 nM oligo, 30 min RT, read at 25 C; Trp quenching: same buffer, 500 nM APE1, 20 C; details: protein: recombinant; label: 5'-6-FAM; parallel G4 (CD), prefolded in 50 mM KCl
APE1 H309A = APE1 H309A (human, UniProt P27695 1-318, H309A); experiment: as above; details: protein: recombinant; label: 5'-6-FAM; parallel G4 (CD), prefolded in 50 mM KCl
APE1 WT [3] = target: T2, APE1 WT (human, UniProt P27695 1-318); experiment: as above; details: protein: recombinant; label: 5'-6-FAM; parallel G4 (CD), prefolded in 50 mM KCl
APE1 WT [4] = target: T2, APE1 WT; experiment: tryptophan fluorescence quenching (Scatchard); 500 nM APE1, 50 mM KCl, 1 mM MgCl2, 20 C; FP: 50 mM Tris-HCl pH 7.5, 50 mM KCl, 1 mM MgCl2, 1 mM DTT, 0.1 mM EDTA, 10 nM oligo, 30 min RT, read at 25 C; Trp quenching: same buffer, 500 nM APE1, 20 C; details: protein: recombinant; parallel G4 (CD), prefolded in 50 mM KCl
APE1 WT [5] = target: T2, APE1 WT; experiment: competition (fluorescence polarization; printed as EC50); 640 nM APE1, 10 nM 6-FAM G4-forming KRAS oligo as probe; FP: 50 mM Tris-HCl pH 7.5, 50 mM KCl, 1 mM MgCl2, 1 mM DTT, 0.1 mM EDTA, 10 nM oligo, 30 min RT, read at 25 C; Trp quenching: same buffer, 500 nM APE1, 20 C; details: protein: recombinant; parallel G4 (CD), prefolded in 50 mM KCl
APE1 WT [6] = target: T2, APE1 WT; experiment: fluorescence polarization; 50 mM KCl, 1 mM MgCl2; no measurable affinity; FP: 50 mM Tris-HCl pH 7.5, 50 mM KCl, 1 mM MgCl2, 1 mM DTT, 0.1 mM EDTA, 10 nM oligo, 30 min RT, read at 25 C; Trp quenching: same buffer, 500 nM APE1, 20 C; details: protein: recombinant; label: 5'-6-FAM; no parallel G4 by CD

T2 sequence (P27695 whole entry): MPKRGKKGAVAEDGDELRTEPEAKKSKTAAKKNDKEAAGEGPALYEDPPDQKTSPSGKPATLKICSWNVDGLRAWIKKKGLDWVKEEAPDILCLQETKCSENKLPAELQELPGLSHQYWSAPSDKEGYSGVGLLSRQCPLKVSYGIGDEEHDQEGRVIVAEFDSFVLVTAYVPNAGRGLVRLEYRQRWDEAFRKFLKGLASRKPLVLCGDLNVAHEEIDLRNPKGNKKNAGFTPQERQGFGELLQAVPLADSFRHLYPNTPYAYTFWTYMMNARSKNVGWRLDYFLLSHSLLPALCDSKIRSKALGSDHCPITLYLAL
Sequence of APE1 H309A (P27695 whole entry H309A): as the sequence (P27695 whole entry) above, with H309A counted along it
Sequence of APE1 NΔ42 (P27695 43-318, stated change not applied): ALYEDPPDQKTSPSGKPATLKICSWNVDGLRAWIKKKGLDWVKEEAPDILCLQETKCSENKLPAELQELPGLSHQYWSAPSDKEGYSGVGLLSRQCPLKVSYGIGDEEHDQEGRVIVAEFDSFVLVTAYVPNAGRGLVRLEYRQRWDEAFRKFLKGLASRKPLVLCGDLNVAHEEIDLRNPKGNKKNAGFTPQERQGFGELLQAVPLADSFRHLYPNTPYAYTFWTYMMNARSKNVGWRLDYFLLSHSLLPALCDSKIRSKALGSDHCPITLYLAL

C[n+]1ccc(-c2c3nc(c(-c4cc[n+](C)cc4)c4ccc([nH]4)c(-c4cc[n+](C)cc4)c4nc(c(-c5cc[n+](C)cc5)c5ccc2[nH]5)C=C4)C=C3)cc1
Kd [1]: 11 nM

AGGGCGGTGTGGGAAGAGGGAAGAGGGGGAGG [G4-forming KRAS oligo (32R), 6-FAM]
Kd [2]: 0.5 nM

AGGGCGGTGTGGGAAGAGGGAAGAGGGGGAGG (structured_DNA) [G4-forming KRAS oligo (32R), 6-FAM]
binding result (GST-APE1 1-42): no binding
Kd (APE1 NΔ42): 313 ± 12 nM
Kd (APE1 H309A): 152 ± 25 nM
Kd (APE1 WT [3]): 31 ± 3 nM

AGGGCGGTGTGGGAAGAGGGAAGAGGGGGAGG (structured_DNA) [G4-forming KRAS oligo (32R), unlabeled]
Kd (APE1 WT [4]): 12 nM
IC50 (APE1 WT [5]): 2300 ± 1500 nM

AGTTCGGTGTGTTAAGAGTTAAGAGTTGGAGG (ssDNA) [non-G4-forming KRAS oligo, 6-FAM]
binding result (APE1 WT [6]): no binding

From publication PMC8990529
